# From the supplement of paper PMC10724198
# ± gives the standard deviation of the averaged measurements.
# Test system: Saccharomyces cerevisiae
# Assay: protein stability index of tFT-peptide fusion (C-terminal peptide) (PSI (0-1 scale)); higher = more stable (slower turnover)
# Conditions: genetic background: wild type; temperature: 30 C
# 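Further: PSI is a weighted mean of sequencing reads over stability bins, variants kept only with over 10 reads, mCherry proximal and sfGFP distal, peptide attached via GGGS linker.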
row,Sequence,protein stability index
1,ESDSEITYNKKQ,0.729 ± 0.012
2,LVVWFGYFGCLL,0.56 ± 0.063
3,KKELKKRNKAKK,0.66 ± 0.012
4,LFHRAVVGRVRP,0.634 ± 0.013
5,FSHRPSPLSLSL,0.719 ± 0.11
6,PRPLPLPPLALP,0.696 ± 0.027
7,PPSLPPPSPAPL,0.682 ± 0.03
8,VVRQDQPDLKSS,0.691 ± 0.008
9,IVADKSPLSSPP,0.6947 ± 0.0017
10,FGGTAVAGLFDL,0.725 ± 0.061
11,EKCIGKRGLTKY,0.703 ± 0.022
12,AVGSAGRGRLGI,0.673 ± 0.0078
13,QGGRGGRHVTDI,0.688 ± 0.022
14,LPPPSPPPIPSP,0.688 ± 0.06
15,LRPCVSHLHLQN,0.677 ± 0.18
16,PGAPPPASPPST,0.714 ± 0.047
17,YSSLLPLSSPSG,0.684 ± 0.04
18,SPSSSPSPFPVP,0.731 ± 0.063
19,SVGVGSFVVLGV,0.6543 ± 0.0024
20,VYVEMWGTSENW,0.653 ± 0.011
21,PDPGPPYPTPTA,0.708 ± 0.066
22,CFLPACPSPGDS,0.737 ± 0.075
23,IILDRQNRDLKY,0.634 ± 0.084
24,GSLFVNRNCTVS,0.697 ± 0.19
25,LGILSERIGRAL,0.7713 ± 0.0036
26,PLPPPPHPLLLL,0.681 ± 0.024

row,Sequence,protein stability index
1,SVPTSLCYSFSP,0.5957 ± 0.0034
2,RRSIAVEFSGTG,0.679 ± 0.041
3,ILFLGSLGCPGG,0.697 ± 0.019
4,PLSPLALLPLRF,0.694 ± 0.065
5,PLSLPPPSPRPP,0.657 ± 0.013
6,PIVLALPTFPPL,0.716 ± 0.048
7,LYPDTDSLTPLP,0.725 ± 0.05
8,GGGWGAGVRLTW,0.757 ± 0.021
9,ILCPIKHKRKGS,0.703 ± 0.064
10,SSPPSPPPPTPS,0.702 ± 0.031
11,LPTPSLPPLPFH,0.623 ± 0.058
12,GAAVWGPLCVWL,0.6534 ± 0.0052
13,AVLFDQLGGRWR,0.614 ± 0.061
14,GSNQYLNNTYLI,0.64768 ± 0.00039
15,SLIPLLPPRSLS,0.594 ± 0.1
16,SLPPALPLPLSH,0.64 ± 0.06
17,DAGRETGRLVGG,0.708 ± 0.032
18,RVVGCPPLLLPP,0.639 ± 0.035
19,SSPLPPSLPSSR,0.671 ± 0.025
20,HLCVDHLGCHSF,0.703 ± 0.048
21,FVGSVFWCWSGR,0.706 ± 0.032
22,PPTPPPPSLTPP,0.746 ± 0.027
23,LFTSLYWAFRSR,0.679 ± 0.016
24,SISFPPPPRSLT,0.719 ± 0.08
25,GPTPPRSPPAVS,0.646 ± 0.055
26,PRPLTPPAPPHP,0.748 ± 0.041

row,Sequence,protein stability index
1,GGGGGAGGDGRG,0.66 ± 0.022
2,TIIRQRHYAPNL,0.6771 ± 0.0056
3,QNLYLSFLRIKL,0.624 ± 0.0088
4,LAPPPPARPALP,0.699 ± 0.0076
5,PLPTPTPPPPAP,0.734 ± 0.028
6,AGWGRRRLDGGR,0.684 ± 0.02
7,VQASESGLRAGV,0.686 ± 0.0092
8,AFPPVIPALFSV,0.697 ± 0.027
9,KKQHTKKKKKKR,0.752 ± 0.041
10,ECFVCGGGILGG,0.637 ± 0.09
11,VLSISINRGVRI,0.664 ± 0.0039
12,PFPSFFFCCISL,0.507 ± 0.0075
13,DSRRDYLHLVFT,0.646 ± 0.023
14,GIVFRGVVTWLL,0.6 ± 0.0085
15,AGPGSSSTNHES,0.585 ± 0.015
16,PLPGPSPPPAPP,0.648 ± 0.044
17,QKKIIRKRKKNR,0.666 ± 0.012
18,TPSRLPPPLRSP,0.703 ± 0.004
19,RKIRRLIVKKGI,0.67 ± 0.022
20,TLQKKLTVNTKK,0.738 ± 0.11
21,SSPPPAFPRASP,0.633 ± 0.015
22,CWNVLVPFDEVI,0.6 ± 0.08
23,RHLRSGTRAKVY,0.678 ± 0.013
24,LPPSRSPPPFPL,0.728 ± 0.048
25,SATPSSLPLPPS,0.739 ± 0.029
26,TRLLPQRPLGGV,0.717 ± 0.046

row,Sequence,protein stability index
1,SDVKFGFCGVAS,0.655 ± 0.028
2,CIVDFLGISSGI,0.659 ± 0.057
3,SLFRGHLLPPRP,0.688 ± 0.036
4,HPPPCLSLPSSP,0.731 ± 0.095
5,CGGRKTPPPPRH,0.688 ± 0.054
6,SFIGEDHQCVFY,0.723 ± 0.013
7,EIRKGGVRSTSN,0.668 ± 0.13
8,KLCGIYMVGGKK,0.65093 ± 0.00038
9,MGGCGARAVVVG,0.6196 ± 0.0032
10,PGFFRLSLFPFA,0.713 ± 0.0083
11,PPYPPPHASPAP,0.693 ± 0.039
12,PTVLFQFSESWP,0.668 ± 0.044
13,SPPGTCPTIRPS,0.664 ± 0.014
14,PPASSPRRPTPP,0.675 ± 0.011
15,FLLVCLNDVLRP,0.588 ± 0.062
16,AYSMMNLYNFAL,0.67 ± 0.014
17,QNGAEESVSVGT,0.662 ± 0.042
18,AVCGPHLYPRVI,0.643 ± 0.022
19,GGVCCGGLRGVS,0.7398 ± 0.0039
20,SGDSVAVGVTGT,0.689 ± 0.056
21,RCPRSPPQPLWT,0.731 ± 0.03
22,VVSYVHTQPPLS,0.684 ± 0.073
23,PPSPPPPPPPPP,0.6847 ± 0.0032
24,SVKTGAAKDRLE,0.6929 ± 0.003
25,KFKVLKVLEVRL,0.6453 ± 0.0019
26,RLAVGMIRPQGE,0.637 ± 0.024

row,Sequence,protein stability index
1,LVYPSPPLQPPP,0.649 ± 0.013
2,GLFAPVGLGFGL,0.724 ± 0.012
3,KKGKSKKKGKKT,0.6906 ± 0.0018
4,VGLLWEYVRLDG,0.7079 ± 0.0036
5,RGYVGVTQVCKN,0.695 ± 0.043
6,GAKVALLSFGFA,0.667 ± 0.1
7,FCSQNLQMNQLS,0.6 ± 0.041
8,VACIIIDFTRWY,0.536 ± 0.019
9,LSLLPFLRPPPI,0.774 ± 0.043
10,SPPPPPPRSPPL,0.606 ± 0.0074
11,SGFYQNTCSSLV,0.756 ± 0.12
12,FGGKLVTHGISY,0.673 ± 0.054
13,HSIPPPRRHPTI,0.742 ± 0.025
14,LIVPGGLSVFGG,0.676 ± 0.082
15,DYRLWFRGLPSL,0.697 ± 0.035
16,DKYFRYKEERTY,0.766 ± 0.16
17,VFRFGVCDDWCV,0.765 ± 0.018
18,ASVIWGGFSDSR,0.719 ± 0.015
19,PPPLAPPSVPCS,0.604 ± 0.053
20,WGALVLAVRSAP,0.642 ± 0.037
21,VFRSRTSSLFTP,0.6794 ± 0.0058
22,GVNGSGFLSEVI,0.6795 ± 0.0012
23,PHASLAPPLPPP,0.5801 ± 0.0042
24,GGGEGREEQEGR,0.701 ± 0.019
25,SGGAGGSCMRYV,0.704 ± 0.022
26,DWGAGAASRADR,0.708 ± 0.015

row,Sequence,protein stability index
1,DYNQWSAHHYGV,0.693 ± 0.029
2,FDGRVTALRVRL,0.724 ± 0.033
3,PDSHPPAPPSPP,0.704 ± 0.031
4,RRPRKSAAGLRG,0.768 ± 0.08
5,YDCPLPPSGLTI,0.688 ± 0.036
6,PSGRRRWACARG,0.694 ± 0.0097
7,SYGWYRVRLLDC,0.57 ± 0.088
8,YGMETVAVYTEG,0.666 ± 0.019
9,TNNLRLKVIGPK,0.653 ± 0.021
10,GALPPPPARGDL,0.768 ± 0.024
11,FPPPPRPPLSFP,0.711 ± 0.078
12,SVLWLSSLRVPL,0.7074 ± 0.0032
13,EREKERNKNGKY,0.671 ± 0.013
14,GLPPPAPRRPDL,0.664 ± 0.0077
15,PTLIPPPPPPGP,0.718 ± 0.059
16,PPPQPPPSPPPP,0.67 ± 0.097
17,AAREVSPGNVCH,0.731 ± 0.065
18,SPPTCPNQLGPP,0.7 ± 0.074
19,SGFRALWGLFAL,0.683 ± 0.014
20,GGCAGGVGRLAV,0.692 ± 0.011
21,VGGEGKVVRGQE,0.6518 ± 0.00034
22,GVAWGSGVGMMW,0.718 ± 0.029
23,GVWSLVGRGGEG,0.621 ± 0.017
24,GVVGKDEGRSRA,0.797 ± 0.038
25,TSTTRRGPRSRF,0.8168 ± 0.0029
26,ISLGVDFSFCSL,0.7014 ± 0.0042

row,Sequence,protein stability index
1,PPPLHPTTLPQP,0.733 ± 0.017
2,RSVPLLNPGFHY,0.663 ± 0.026
3,NVLVRFFSSGVW,0.85 ± 0.047
4,TFSFPSPAPHSC,0.781 ± 0.033
5,PHLPSSPSPYSP,0.689 ± 0.0043
6,LSPLRPPAPSVF,0.646 ± 0.038
7,TESGVCWCRREV,0.685 ± 0.04
8,VCRADADRFVGL,0.71 ± 0.059
9,FVVAERSDRNLV,0.6875 ± 0.00093
10,LPPPRSPPLPRL,0.802 ± 0.059
11,DCNQLRGRAFRL,0.719 ± 0.034
12,KTGNKKQRKKKV,0.753 ± 0.032
13,VCGRWVYPGGCR,0.61 ± 0.01
14,KKTNTQTKKKTK,0.709 ± 0.075
15,GVSGQGLVAVEV,0.59 ± 0.035
16,PCDCAHPVLRPM,0.634 ± 0.069
17,FPVWVKGLLGMG,0.636 ± 0.048
18,GLNPPDPYPVSF,0.754 ± 0.11
19,LCRYFLRGVINT,0.64998 ± 0.00026
20,FSAVRIQASLRW,0.629 ± 0.028
21,CFSCLWVPLLPS,0.649 ± 0.008
22,NLETVAENMFLA,0.71 ± 0.053
23,ACPAPPPPQLPR,0.593 ± 0.031
24,GLGTIYGGEWWW,0.759 ± 0.085
25,PPLLPPPVPPVP,0.727 ± 0.07
26,PLNQKPPDWPTQ,0.734 ± 0.015

row,Sequence,protein stability index
1,HYDTHQTPQTSP,0.667 ± 0.023
2,PFMFLSSCSGFF,0.735 ± 0.019
3,LLQFYWRPCRGY,0.699 ± 0.013
4,LVWTGGLVGWLR,0.719 ± 0.2
5,SPFRATPYPLLP,0.6909 ± 0.0031
6,PHPAPPPSPSPS,0.715 ± 0.033
7,CLGPDWWARRSI,0.772 ± 0.064
8,TQRLPTPPSIPL,0.672 ± 0.017
9,SPPPASDHPNPL,0.648 ± 0.063
10,LPHSPHRAAYPN,0.8 ± 0.013
11,IRGIKSRKFTSV,0.753 ± 0.0079
12,RPPYIALAPSDR,0.694 ± 0.0097
13,LRRPSPPAPPPP,0.718 ± 0.11
14,KGDCGGRGCGRH,0.682 ± 0.0076
15,VSGAAFMSSAFW,0.753 ± 0.045
16,TPVAPGLSPPPL,0.659 ± 0.066
17,LSDSLERVGGAF,0.701 ± 0.048
18,SAGAPRMPARGG,0.691 ± 0.071
19,FLRLSPQFASFP,0.677 ± 0.083
20,GIVRGFGGGGEE,0.662 ± 0.026
